Assay results published in the RNAGym collection of RNA variant scans (doi:10.1073/pnas.2313332121).

B1: TPR t1 (parent)
chain: GACCAAUCUGCCCUCAGAGCUCGAGAACAUCUUCGGAUGCAGAGGAGGCAGGCUUCGGUGGCGCGAUAGCGCCAACGUCCUCAACCUCCAAUGCAUCCCACCACAUGAUGAUGCCUGAAGAGCCUUGGUUUUUUG

Variants of: B1
Assay: polymerase ribozyme fitness, log enrichment relative to wild type (log ratio); higher = more active; in vitro selection for triplet polymerase activity
Method in brief: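 Fitness is a logarithmic measure of how a genotype enriched relative to the wild type, with replicate averages weighted by inverse variance. The logarithm uses base 2, and enrichment came from Illumina sequencing of input and output libraries. Those libraries were PCR-built, transcribed mutants of each subunit of a heterodimeric triplet polymerase ribozyme, passed through one triplicate in vitro selection round that included frozen incubation at −7 °C, gel excision of extended constructs and streptavidin-bead capture. Genotypes were kept only if they had ≥10 input reads and ≥1 read per output.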

Row | Variant | polymerase ribozyme fitness (log ratio)
1 | A29U C123A | -1.43
2 | C20G G52A A111U | -3.23
3 | G10A C53G G61A A95G | -0.503
4 | C4U C11A G51C | -4.83
5 | G17A A18C C114G C124A G135U | -5.65
6 | G71A C86A C114A | -3.9
7 | C72G C82A | -1.18
8 | A5G C64U C85U | -1.64
9 | C73U U78A C88G G120U | -1.15
10 | G10A G44U | -1.5
11 | A27C G51A C76G | -5.75
12 | C53G C70G | -2.85
13 | C53A C86U | -0.0407
14 | G36U G48U U78A | -2.21
15 | C4G U32C G45U | -3.28
16 | C15U G63U U78A G127C | -4.1
17 | A43G C85G | -2.89
18 | G71A G93A G117A G120C | -2.99
19 | G35A C85G U106G G120C | -4.02
20 | C22U C114A | -4.76
21 | A18U A29U U54G C89G C114G | -3.41
22 | A5U C12U U78C C80U | -1.23
23 | G69C C88U | -1.17
24 | A16U G63U | -4.13

Row | Variant | polymerase ribozyme fitness (log ratio)
25 | A26U G51A C64U A91U G120A C124G | -6.85
26 | G17A C62G | -5.69
27 | C15A A18U C22G U92G | -6.59
28 | C12G C124A | 1.61
29 | U9G G65C G69C | -5.37
30 | C40U G113A C114G | -2.13
31 | A5U U32C C124G G128U | -0.425
32 | G35A G69C | -4.88
33 | C101U A121G | 1.57
34 | U21A C124G | 0.373
35 | U55C C72G C79U | 0.018
36 | C62U C72G C94A | -3.29
37 | U9G U55A | -0.0521
38 | C15U C56G A90C G93A G117U G127A | -3.28
39 | C34G G63U | -8.24
40 | A26G A27U G36A U112G U129G | -5.51
41 | A6U C40G A50U | -1.66
42 | C12U C64U | 0.0316
43 | G77C C115A | 0.325
44 | C13G G128C | -3.48
45 | C40U G63A | -1.95
46 | G48A U106C | 0.21
47 | C49G G69C | -1.79
48 | C3G U106C C123G | -1.58

Row | Variant | polymerase ribozyme fitness (log ratio)
49 | A50U C94U | -0.732
50 | G60U A75U U87C | 0.354
51 | A5G C82U C97U C124G U126A | -0.153
52 | C20A G63A C102G G113C C115A G117C | -8.43
53 | G63U G135U | -2.37
54 | G71C C79G | -1.96
55 | C49A C64U C123U | 0.702
56 | C73A A90U A105G G113C G122C | -3.65
57 | A5C C88G G127A | -2.6
58 | C8U A46G | -0.00753
59 | G57U G110U | -1.8
60 | C53G A68G U87G | -4.16
61 | C56U C82A G110C | -4.8
62 | G77C G117C | -4.29
63 | C8A G10A G47A | -1.74
64 | G10A C15U G17A A41U C72U A105U G120A G122A | -5.83
65 | U55C G58A G60U U78A G110A | -1.19
66 | A16U C79U C86A G120U G128A | -4.89
67 | C40G G47U G93U U129C U133G | -2.76
68 | C98A | -5.14
69 | C12U G19U A43U C64G A95C G117U | -7.83
70 | C15U A37U C62U | -1.85
71 | C12A A37U A68G C114G | -6.56
72 | C53U C73A | -0.168

Row | Variant | polymerase ribozyme fitness (log ratio)
73 | C8A U21C C62U A83G G117A | -1.21
74 | C22A C31A C64G C97U C115A G127U U129G U130G | -6.15
75 | C40U G58C | -0.23
76 | A29G G69U A95G | -1
77 | C12A C62G C72G | -6.48
78 | C13A A111C | -1.39
79 | C8G C11U U116C G120U | 0.747
80 | C11A U81C A90G | -2.45
81 | C12U C40U G69C A91U C101U A121C | -2.89
82 | A6C G63A U87G C88A | -1.25
83 | C28U U125A | -2.25
84 | G71A G128C | -3.14
85 | U7C C13A C53U | -0.742
86 | C12A A24G A41U G71C C88U A90G C123G | -4.92
87 | G45A A111G C114A | -5.79
88 | G47C C123G | -1.31
89 | A50G U55A G69A | -2.85
90 | G39U C53A C82A C124G | 1.35
91 | C64G U112G G120A | -5.95
92 | C73U C104U C115A | 0.332
93 | C3U G39A U54G G120C | 0.423
94 | U9A C20G U96G C124U | -3.29
95 | C53A G61A U78G C79A U81G C85A | -4.32
96 | G63C U78G C98U | -2.14

Row | Variant | polymerase ribozyme fitness (log ratio)
97 | C62G U78A U106A | -1.75
98 | C56U C73G U96A U106A | -3.7
99 | C34U U116C | -5.7
100 | U7C G58C A91C | -1.02
101 | G69C G135A | -1.9
102 | C56A G60A G69C | -3.21
103 | C56G C62G | -3.35
104 | G36U A103G | -4.73
105 | A43G G57U C88A C104A G120U | -5.76
106 | A111G C124A U126A | 0.226
107 | C22G G93C A103G G110U | -6.45
108 | C20U C28A G60A A121C | -2.44
109 | C12A C97A | -4.79
110 | U78C U92G C114U | -2.3
111 | C72U C86A A103C | -5.58
112 | C15A A37U | -2.28
113 | C79G C82U U130A | -2.13
114 | C13U U112C | 1.07
115 | G44C G48U C53A G61C U112G | -6.03
116 | A6U C86U C88A A121U | 0.522
117 | G39U G45C U87A C114U | -6.43
118 | A46U U109A | -6.04
119 | A2G C73G C85A G113A G120C | -3.08
120 | C11G G120C G135C | 2.47

Row | Variant | polymerase ribozyme fitness (log ratio)
121 | A37U C53A G63A C94G G120C U131A | -3.11
122 | C28U C86A | -2.8
123 | G45U C73U C79A | -2.93
124 | G25U G110U | -5.41
125 | A26G G45C A95G C98G | -7.76
126 | G45U G60U | -0.287
127 | C72A G110A | -1.01
128 | G17U G42U G128A | -5.51
129 | A5G C72A | 0.0113
130 | C64U A111C C115A G127A | -4.2
131 | C34A U55C G60C U129G | -4.03
132 | G93C G120C | -1.19
133 | C8A C11U G17C | -2.13
134 | C53A U78C C104A | -1.25
135 | C88A G113U | -2.76
136 | G17U A18C C53G | -3.98
137 | U21G A37G A41U G113U | -2.41
138 | C11A G45U | -2.48
139 | C3A G71U C115G A118U | -4.97
140 | C49A U96C G120U | -0.575
141 | A5U G69U A91C G113A U116C U130C | -5.42
142 | C79A C101U | -1.4
143 | C3U C28U G71A C89A C123G U130C | -4.19
144 | C40A G61U G93U A100C | -1.18

Row | Variant | polymerase ribozyme fitness (log ratio)
145 | G10U G23U A26G G63A C114G | -5.43
146 | C22U C101A | -4.34
147 | A75U C99U U109G C115U U116A | -7.29
148 | C76G A90C C101U | -1
149 | U14A A74G G117U | -4.7
150 | U14G G51A G113A G120A A121G | -2.87
151 | G47A G135U | -2.25
152 | U55C G69U A90G U112C A119U | 0.0646
153 | A43U A111U | -4.27
154 | A6G G69A | -2.86
155 | C22G U87A G113U | -6.04
156 | G61C G122A | -2.5
157 | C8G C72U C89A A105U | -3.93
158 | G35U G69A U81C G113U | -6.53
159 | C12A G23A C82G | -7.42
160 | C13U A29C G61U | -2.08
161 | C8U U32G C101A C115G | -5.52
162 | C53U U81C C88A | -1.58
163 | U14G C70G U116G U125A | -5.32
164 | C73A C86U G128A | -1.81
165 | U55G C82U A100U G113U | -4.11
166 | C15G C62U | -1.91
167 | C56U G113U G120A | -3.03
